Target: the molecule itself
Test: SEC-MALS; purified recombinant PA2504 on a Superdex200 column with HELEOS light scattering instrument; 50 mM Tris-Cl pH 7.0, 300 mM NaCl, 0.5 mL/min

B1: His6-tagged PA2504, recombinant, purified from E. coli (plasmid pQE2504) (natural protein)
chain: MASWTLVDASAIAVRHPYTFYKPDAETIDRVAAGESVKLIFAFDTDNPDAPRAERLWVTVEGIEADGAFSGRLDNYPQYIRDLSLGERIVFEARHIINTEHDPRETPISRYARRCFVTRRVIDEGKAVGYLYREAPEEENDSGWRLMAGDESDDYMNTAGTTAYVSLGSVLNADDSILPLLDAPPGRAFERLADGSFIEVQGPEG
notes: PA2504, uncharacterised protein of Pseudomonas aeruginosa; the PA2504 gene without the start codon cloned into pQE-80L; Dimer by SEC-MALS; No removal of the tag is described; also called His6PA2504; recombinant PA2504 protein; source: E. coli BL21-DE3, purified (Ni-NTA)
  stoichiometry N: 2
